Target: UBE2D2 (wild type) (UniProt P62837 1-147)
Assay: ITC

UBE2D2 (wild type), sequence (P62837 whole entry): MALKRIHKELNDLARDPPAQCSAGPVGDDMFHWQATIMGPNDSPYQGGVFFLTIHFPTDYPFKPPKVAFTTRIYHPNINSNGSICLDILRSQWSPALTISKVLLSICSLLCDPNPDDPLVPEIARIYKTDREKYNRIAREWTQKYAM

B1: PHF7 (mPHF7 28–307) (domain or fragment)
chain: SSSPVCLLCLQEPGDPEKLGEFLQKDNLCVHYFCLILSSRLPQKGQPNRGLHGFMPEDIKREAVRASKKICFVCKKKGAAIRCQNDQCVQNFHLPCGQERGCLSQFFGEYKSYCRKHRPTQNIHQGSLGEESCVLCCENLSRTSVENIQSPCCSQAIYHRKCIQKYAHTSAKHFFKCPQCNNREEFPQEMLRMGIHIPDRDAAWELEPGAFSELYQRYRHCDAPICLYEQGRDSFEDEGRWRLILCATCGSHGTHRDCSSLRPNSKKWECNECLPASTTS
modifications: RED-NHS dye label (in the MST assay only)
- binding result: binds
